In assay [1] the target is T1, recombinant soluble human CD154 (extracellular portion of human CD154 fused to mouse Cκ), trimeric (human; mouse, UniProt P29965 47-261).
T1 sequence (looked up): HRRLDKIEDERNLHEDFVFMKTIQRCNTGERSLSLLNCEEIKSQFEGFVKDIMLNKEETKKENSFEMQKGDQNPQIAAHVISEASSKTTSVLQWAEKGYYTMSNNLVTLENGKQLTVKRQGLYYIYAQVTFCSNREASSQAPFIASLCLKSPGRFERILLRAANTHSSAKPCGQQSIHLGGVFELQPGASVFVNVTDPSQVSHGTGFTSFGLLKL
The assay is described as follows: cell-based or functional assay.

For assay [2], the target named is T1, recombinant soluble human CD154 …. Nature of the assay: SPR (BIAcore), ABI793 immobilised, CD154-κ 10 to 160 nM in solution, n = 3. The procedure:
The association and dissociation rate constant for the binding of recombinant human CD154 to ABI793 is determined by BIAcore analysis. ABI793 is immobilized, and binding of soluble recombinant CD154 (CD154-κ) in a concentration range from 10 to 160 nM is measured by surface plasmon resonance. The chosen format represents a monovalent interaction. Data analysis is performed using the BIA evaluation software.

Assay [3] has the same target. Nature of the assay: cell-free competitive binding assay: CD154-κ immobilised, biotinylated soluble human CD40, Eu-streptavidin fluorimetry. As for the experimental part: The ability to inhibit the binding of CD154 to CD40 is tested in a cell-free competitive binding assay. Recombinant soluble human CD154 (i.e., the extracellular portion of human CD154 fused to mouse Cκ) is immobilized on microtiter plates and the plates incubated, in the presence or absence of a putative inhibitor, with biotinylated recombinant soluble human CD40. The fraction of CD40 bound to CD154 is fluorimetrically determined using Eu-labelled streptavidin as the detection reagent.

The text below walks through data of patent US20040038293A1 (Novartis, published 2004).

One may read the Kd as the free concentration of one partner at which half of the binding sites on the other are occupied at equilibrium, for simple one-to-one binding. For orientation: koff means the first-order rate constant of dissociation. As a reminder, the kon is the second-order rate constant of association. The IC50 is the concentration at which inhibition is half-maximal.

B1: ABI793 antibody (human anti-human CD154 monoclonal antibody from hybridoma # 207.2) (antibody, V domains shown)
VH: QVQLVQSGAEVQKPGSSVKVSCKASGGTFSNFAFNWVRQVPGQGLEWMGRILPSLDIASYAQKFQDRVTITADKSTSTAYMELSSLRSEDTAMYYCAREVDGGGFDYWGQGTLVTVSS
VL: DIQMTQSPSSLSASVGDRVTITCRASQGISSWLAWYQQKPEKAPKSLIYAASSLQSGVPSRFSGSGSGTDFTLTISSLQPEDFATYYCQQYNSYPFTFGGGTKVEIK
notes: FTC-labelled in part of the flow cytometry experiments; also called Antibody of the Invention
As for B1, the “Inhibition of CD154/IL-4 driven B Cell Proliferation (3H-TdR uptake), IC50” value in assay [1] is 0.073 µg/mL. Besides, in assay [2], the Kd is 23.1 nM, the off-rate constant (koff) was 0.000538 s⁻¹ and the kon was 23400 M⁻¹ s⁻¹. Further, the IC50 in assay [3] was found to be 0.075 µg/mL.
